From patent publication US7285395B2, “Stearoyl-CoA desaturase 4 gene” (Wisconsin Alumni Research Foundation, priority 2004, dated 2007) come the findings set out here.

The subject of one experiment is ob/ob mice. Description: food intake and body weight of ob/ob mice under subcutaneous leptin treatment. It is filed as in vivo, mouse. The conditions noted are these: leptin 200 ng/h subcutaneous miniosmotic pump. Here is the method:
Subcutaneous Leptin Treatment—ob/ob mice were individually caged and allowed to acclimate for a number of days prior to the start of the experiment. The mice were treated with 200 ng/h of recombinant mouse leptin (Amgen, Thousand Oaks, Calif.) […] phosphate-buffered saline (PBS) for 12 days using subcutaneously placed Alzet miniosmotic pumps model 1002 (AlZa Co., Palo Alto, Calif.) as described in Soukas, A. et al. (2000) Genes Dev. 14, 963-980, which is herein incorporated by reference in its entirety. As an additional control, a group of mice referred to as pair-fed was treated with PBS and given the same amount of food to eat as leptin-treated mice voluntarily consumed. All of the data presented were generated from this or a similar time course where mice were either treated with PBS or leptin for 12 days. Body mass and food intake were measured daily.
ob/ob mice have a mutation in the leptin gene and are a model of obesity, insulin resistance, and diabetes. […] We analyzed the mRNA level of the SCD4 isoform in the hearts of leptin-deficient ob/ob mice and ob/ob mice treated with either PBS or leptin. As an additional control, RNA isolated from saline-treated ob/ob mice that were pair-fed to the leptin treated group for 12 days was also analyzed. […] To determine which SCD isoform(s) accounted for these effects, we measured RNA levels of mSCD1, mSCD2, and mSCD4. […]

For a further experiment, the system named is mSCD2. The experiment can be described thus: quantitative RT-PCR of mSCD2 mRNA in hearts of leptin-treated ob/ob mice. It is filed as in vivo, mouse. The conditions noted are these: heart of leptin-treated ob/ob mice, 12 days. The method, then: A, SCD activity: Microsomes were prepared from hearts of PBS-treated, ob/ob, ob/ob pair-fed (PF), and leptin-treated (ob/ob-Leptin) mice, and SCD enzyme activity was determined by measuring the incorporation of radioactivity in oleoyl-CoA using [1-^14C]stearoyl-CoA as a substrate. The reaction products were separated by TLC, and the radioactivity was quantitated. Each value represents the mean±S.E. (n=4). B, Levels of monounsaturated fatty acids in the hearts of ob/ob mice: Total fatty acids were extracted from heart of ob/ob mice treated with either leptin or PBS and wild type controls quantitated by GLC as described in the example below. *, p<0.05 versus wt-PBS; #,p<0.05 versus ob/ob-PBS. C, Total RNA was prepared from hearts of PBS or leptin-treated ob/ob mice and used to measure SCD1, SCD2, and SCD4 mRNA levels by quantitative RT-PCR analysis. The fold change relative to that of wild type was calculated after correction for the levels of cyclophilin used as a standard. Each value represents the mean±S.E. (n=4).
Subcutaneous Leptin Treatment—ob/ob mice were individually caged and allowed to acclimate for a number of days prior to the start of the experiment. […] Body mass and food intake were measured daily. […]

B1: leptin: recombinant mouse leptin (Amgen, Thousand Oaks, Calif.) (protein, UniProt P41160 22-167, looked up)
Leptin: VPIQKVQDDTKTLIKTIVTRINDISHTQSVSAKQRVTGLDFIPGLHPILSLSKMDQTLAVYQQVLTSLPSQNVLQIANDLENLRDLLHLLAFSKSCSLPQTSGLQKPESLDGVLEASLYSTEVVALSRLQGSLQDILQQLDVSPEC
In the experiment on ob/ob mice (after 12 days of treatment), B1 had a food intake of 1.2 ± 0.1 g. Besides, the “loss of initial weight” value in the experiment on ob/ob mice (end of 12-day treatment) is on record as 34±0.8%. In addition, the “expression of mSCD2 isoform” value in the experiment on mSCD2 is on record as “unchanged”.
